T1/2 (binding half-life) data for one substance are collected here from patent US20060045881A1, “Anti-cancer vaccines” (Board of Regents, The University of Texas System, priority 2004, published 2006).

For the experiment, the target named is HLA-A2.1 heavy chain with I125-labeled beta2-microglobulin (heterotrimer complex assay) (human). The experiment is described as follows: dissociation of I125-labeled beta2-microglobulin from heavy chain/peptide/beta2m complex, HPLC gel filtration.

In turn, “HTLV-1 Tax peptide (aa 11-19) (from UniProt P03409 11-19) (peptide; other documents disagree on this pair)” registered a T1/2 (binding half-life) of 133 h.
